Measured values: PMC4987513, “Phytochrome B and REVEILLE1/2-mediated signalling controls seed dormancy and germination in Arabidopsis”

How the values were obtained:
Settings in all cases: protein: recombinant; tags: His; blunt
[1] = target: T1, HIS-RVE1 (Arabidopsis thaliana, UniProt F4KGY6 1-387); experiment: EMSA; LightShift Chemiluminescent EMSA Kit (Pierce) per manufacturer, 5% polyacrylamide gel; buffer, salt, pH and temperature not stated
[2] = target: T1, HIS-RVE1; experiment: competition; unlabelled 50x excess vs biotin-E3 probe; no effect on shift; LightShift Chemiluminescent EMSA Kit (Pierce) per manufacturer, 5% polyacrylamide gel; buffer, salt, pH and temperature not stated
[3] = target: T1, HIS-RVE1; experiment: competition; unlabelled 50x excess vs biotin-E4 probe; no effect on shift; LightShift Chemiluminescent EMSA Kit (Pierce) per manufacturer, 5% polyacrylamide gel; buffer, salt, pH and temperature not stated

T1 sequence (F4KGY6 whole entry): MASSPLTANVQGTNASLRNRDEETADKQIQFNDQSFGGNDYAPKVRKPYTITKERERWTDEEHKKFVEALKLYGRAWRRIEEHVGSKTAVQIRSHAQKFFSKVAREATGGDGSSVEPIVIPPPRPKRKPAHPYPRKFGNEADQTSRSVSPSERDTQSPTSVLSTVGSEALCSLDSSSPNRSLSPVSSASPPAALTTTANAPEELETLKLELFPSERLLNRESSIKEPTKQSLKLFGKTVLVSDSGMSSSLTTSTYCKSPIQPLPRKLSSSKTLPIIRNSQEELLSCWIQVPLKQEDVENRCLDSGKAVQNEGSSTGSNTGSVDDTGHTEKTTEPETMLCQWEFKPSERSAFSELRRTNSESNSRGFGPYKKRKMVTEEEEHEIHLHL

Binder | binding result [1] | further results
GA3ox2 E3 (3 copies) WT (dsDNA) DNA 1: GTTTAACGATATTAGTTTTTGTTTAACGATATTAGTTTTTGTTTAACGATATTAGTTTTT DNA 2: AAAAACTAATATCGTTAAACAAAAACTAATATCGTTAAACAAAAACTAATATCGTTAAAC | binds | –
GA3ox2 E4 (3 copies) WT (dsDNA) DNA 1: AAGTATCATATCATACCAAAAAGTATCATATCATACCAAAAAGTATCATATCATACCAAA DNA 2: TTTGGTATGATATGATACTTTTTGGTATGATATGATACTTTTTGGTATGATATGATACTT | binds | –
GA3ox2 E3 (3 copies) mutant (dsDNA) DNA 1: GTTTAACGGGATAGGTTTTTGTTTAACGGGATAGGTTTTTGTTTAACGGGATAGGTTTTT DNA 2: AAAAACCTATCCCGTTAAACAAAAACCTATCCCGTTAAACAAAAACCTATCCCGTTAAAC | – | binding result [2]: no binding
GA3ox2 E4 (3 copies) mutant (dsDNA) DNA 1: AAGTACGTCTCAGTACCAAAAAGTACGTCTCAGTACCAAAAAGTACGTCTCAGTACCAAA DNA 2: TTTGGTACTGAGACGTACTTTTTGGTACTGAGACGTACTTTTTGGTACTGAGACGTACTT | – | binding result [3]: no binding
